US7427498B2, “Composition, methods and reagents for the synthesis of a soluble form of human PHEX” (Universite De Montreal, priority 1999, dated 2008)
“Also recorded” adds a separate entry of the source.

T1: PTHrP107-139, P12272
T1 chain: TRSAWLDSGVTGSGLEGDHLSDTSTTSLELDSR


Key:
secPHEX = experiment: Inhibition of secPHEX enzymatic activity (cleavage of PTHrP107-139, RP-HPLC); format: biochemical, human; conditions: 0.001 M inhibitor added to the reaction mixture
Protocol: (§1) FIG. 6: Enzymatic assay for secPHEX. Purified secPHEX (2 μg) was incubated in the presence of 10 μg PTHrP107-139 and the reaction mixture analyzed by RP-HPLC.
(§2) An aliquot of purified PHEX containing 2 μg of protein was incubated for 15 min at 37° C. in a volume of 200 μl of 50 mM MES (2-(N-Morpholinoethanesulfonic acid, pH 6.5, containing 150 mM NaCl and 10 μg of PTHrP107-139 as a substrate. After the incubation period, the hydrolysis was stopped by the addition of trifluoroacetic acid to a final concentration of 0.1%. Identification of peptide products was performed by reverse phase high performance liquid chromatography (RP-HPLC) on a C18 μBondapak analytical column (Waters) with a UV detector set at 214 nm. Peptides were resolved with a linear gradient of 5% B to 85% B in 45 min at the flow rate of 0.4 ml/min [mobile phase A=0.1% trifluoroacetic acid; mobile phase B=80% acetonitrile (CH3CN), 0.1% trifluoroacetic acid].

PTHrP107-139, P12272 = target: T1, PTHrP107-139, P12272
PTHrP107-139 = experiment: Assay for the activity of PHEX: digestion of PTHrP107-139 by purified secPHEX, RP-HPLC; format: biochemical
Protocol: as §1, §2

Molecule	inhibition of secPHEX enzymatic activity (degradation of PTHrP107-139) (secPHEX)	PTHrP107-139 peak on the chromatogram (RP-HPLC) after 15 min of incubation (PTHrP107-139, P12272)	PTHrP107-139 peak on the chromatogram, % of its original surface (PTHrP107-139; 2 μg secPHEX, 10 μg PTHrP107-139, 15 min at 37° C., 50 mM MES pH 6.5, 150 mM NaCl)	enzymatic activity in other buffers (PTHrP107-139; Acetate, HEPES and Tris buffers covering a pH range from 4.0 to 8.5)	enzymatic activity on PTHrP107-139 (qualitative) (PTHrP107-139; purified secPHEX, conditions of Methods)
c1cnc2c(c1)ccc1cccnc12 [O-phenantrolin]	fully inhibited	–	–	–	–
O=C(O)CN(CCN(CC(=O)O)CC(=O)O)CC(=O)O [EDTA]	totally inhibited; also recorded: fully inhibited	–	–	–	–
secPHEX, soluble secreted form of recombinant human PHEX (construct 3, pCDNA3/RSV/PHEX-MutE) (protein) MEAETGSSVETGKKANRGTRIALVVFVLTVIAQQTTSQGLLSLQAKQEYCLKPECIEAAAAILSKVNLSVDPCDNFFRFACDGWISNNPIPEDMPSYGVYPWLRHNVDLKLKELLEKSISRRRDTEAIQKAKILYSSCMNEKAIEKADAKPLLHILRHSPFRWPVLESNIGPEGVWSERKFSLLQTLATFRGQYSNSVFIRLYVSPDDKASNEHILKLDQATLSLAVREDYLDNSTEAKSYRDALYKFMVDTAVLLGANSSRAEHDMKSVLRLEIKIAEIMIPHENRTSEAMYNKMNISELSAMIPQFDWLGYIKKVIDTRLYPHLKDISPSENVVVRVPQYFKDLFRILGSERKKTIANYLVWRMVYSRIPNLSRRFQYRWLEFSRVIQGTTTLLPQWDKCVNFIESALPYVVGKMFVDVYFQEDKKEMMEELVEGVRWAFIDMLEKENEWMDAGTKRKAKEKARAVLAKVGYPEFIMNDTHVNEDLKAIKFSEADYFGNVLQTRKYLAQSDFFWLRKAVPKTEWFTNPTTVNAFYSASTNQIRFPAGELQKPFFWGTEYPRSLSYGAIGVIVGHEFTHGFDNNGRKYDKNGNLDPWWSTESEEKFKEKTKCMINQYSNYYWKKAGLNVKGKRTLGENIADNGGLREAFRAYRKWINDRRQGLEEPLLPGITFTNNQLFFLSYAHVRCNSYRPEAAREQVQIGAHSPPQFRVNGAISNSEEFQKAFNCPPNSTMNRGMDSCRLW	–	PTHrP107-139 peak on the chromatogram was decreased to 15% of its original surface after only 15 min of incubation	15%	Activity was also observed	active; also recorded: can degrade this peptide
